Measured values from IntAct's records for PubMed 31515488.

B1: DNA mismatch repair protein Mlh1 (Homo sapiens), P40692 (parent)
chain: MSFVAGVIRRLDETVVNRIAAGEVIQRPANAIKEMIENCLDAKSTSIQVIVKEGGLKLIQIQDNGTGIRKEDLDIVCERFTTSKLQSFEDLASISTYGFRGEALASISHVAHVTITTKTADGKCAYRASYSDGKLKAPPKPCAGNQGTQITVEDLFYNIATRRKALKNPSEEYGKILEVVGRYSVHNAGISFSVKKQGETVADVRTLPNASTVDNIRSIFGNAVSRELIEIGCEDKTLAFKMNGYISNANYSVKKCIFLLFINHRLVESTSLRKAIETVYAAYLPKNTHPFLYLSLEISPQNVDVNVHPTKHEVHFLHEESILERVQQHIESKLLGSNSSRMYFTQTLLPGLAGPSGEMVKSTTSLTSSSTSGSSDKVYAHQMVRTDSREQKLDAFLQPLSKPLSSQPQAIVTEDKTDISSGRARQQDEEMLELPAPAEVAAKNQSLEGDTTKGTSEMSEKRGPTSSNPRKRHREDSDVEMVEDDSRKEMTAACTPRRRIINLTSVLSLQEEINEQGHEVLREMLHNHSFVGCVNPQWALAQHQTKLYLLNTTKLSEELFYQILIYDFANFGVLRLSEPAPLFDLAMLALDSPESGWTEEDGPKEGLAEYIVEFLKKKAEMLADYFSLEIDEEGNLIGLPLLIDNYVPPLEGLPIFILRLATEVNWDEEKECFESLSKECAMFYSIRKQYISEESTLSGQQSEVPGSIPNSWKWTVEHIVYKALRSHILPPKHFTEDGNILQLANLPDLYKVFERC
B2: Glutathione S-transferase Mu 5 (Homo sapiens), P46439 (parent)
chain: MPMTLGYWDIRGLAHAIRLLLEYTDSSYVEKKYTLGDAPDYDRSQWLNEKFKLGLDFPNLPYLIDGAHKITQSNAILRYIARKHNLCGETEEEKIRVDILENQVMDNHMELVRLCYDPDFEKLKPKYLEELPEKLKLYSEFLGKRPWFAGDKITFVDFLAYDVLDMKRIFEPKCLDAFLNLKDFISRFEGLKKISAYMKSSQFLRGLLFGKSATWNSK
B3: Keratin, type I cytoskeletal 18 (Homo sapiens), P05783 (parent)
chain: MSFTTRSTFSTNYRSLGSVQAPSYGARPVSSAASVYAGAGGSGSRISVSRSTSFRGGMGSGGLATGIAGGLAGMGGIQNEKETMQSLNDRLASYLDRVRSLETENRRLESKIREHLEKKGPQVRDWSHYFKIIEDLRAQIFANTVDNARIVLQIDNARLAADDFRVKYETELAMRQSVENDIHGLRKVIDDTNITRLQLETEIEALKEELLFMKKNHEEEVKGLQAQIASSGLTVEVDAPKSQDLAKIMADIRAQYDELARKNREELDKYWSQQIEESTTVVTTQSAEVGAAETTLTELRRTVQSLEIDLDSMRNLKASLENSLREVEARYALQMEQLNGILLHLESELAQTRAEGQRQAQEYEALLNIKVKLEAEIATYRRLLEDGEDFNLGDALDSSNSMQTIQKTTTRRIVDGKVVSETNDTKVLRH

Variants of: B1
Conditions: with msh3_human MSH3, P20585
With S106N the “effect of a mutation on the interaction” value was “with no effect”.
In the case of V326A, the “effect of a mutation on the interaction” value is reported as “disrupting interaction strength”.
With V213M the “effect of a mutation on the interaction” value was “with no effect”.

Variants of: B1
Conditions: with ima1_human KPNA2, P52292
S106N was tested, and the “effect of a mutation on the interaction” value was “with no effect”.
For V326A, the “effect of a mutation on the interaction” value was “disrupting interaction strength”.
With V213M the “effect of a mutation on the interaction” value was “with no effect”.

Variants of: B1
Conditions: with psa1_human PSMA1, P25786
S106N was tested, and the “effect of a mutation on the interaction” value was “with no effect”.
With V326A the “effect of a mutation on the interaction” value was “disrupting interaction strength”.
With V213M the “effect of a mutation on the interaction” value was “with no effect”.

Variants of: B2
Conditions: with amol2_human AMOTL2, Q9Y2J4
In the case of L179P, the “effect of a mutation on the interaction” value is reported as “with no effect”.

Variants of: B3
Conditions: with KRT15, P19012
I150V was tested, and the “effect of a mutation on the interaction” value was “with no effect”.
